Data on one protein can be found in article PMC5454378, “Histone deacetylase 10 structure and molecular function as a polyamine deacetylase” (Nature Communications, 2017).

Substrate in this data set: CC(=O)NCCCC[C@H](NC(=O)[C@H](C)NC(=O)CNC(C)=O)C(=O)Nc1ccc2c(C)cc(=O)oc2c1
The data set can be described thus: purified protein, by the assay type. More on the design: fluorogenic AMC-conjugated acetyllysine peptide deacetylation, steady-state kinetics. The source says: To determine steady-state kinetic parameters for the hydrolysis of a variety of acetylpolyamine and acetyllysine substrates, we prepared full-length recombinant HDAC10 from human (H. sapiens, hHDAC10) and zebrafish (D. rerio, zHDAC10). The CDs of these orthologues are highly similar based on 63%/79% sequence identity/similarity; only full-length constructs yielded soluble proteins. We first assayed the lysine deacetylase activity of these constructs against two commercially available aminomethylcoumarin (AMC)-conjugated fluorogenic acetyllysine peptides, GAK(ac)-AMC and RGK(ac)-AMC (molecular structures of all substrates are shown in Supplementary Fig. 2). […] These measurements were consistent with earlier studies reporting that HDAC10 activity was not measurable using fluorogenic peptide substrates. We also tested activity with 11 non-fluorogenic acetyllysine substrates using a […] chromatography–mass spectrometry (LC–MS)-based discontinuous assay[17] to avoid potential steric clashes that might occur with the bulky AMC group. These substrates included K(ac)NL and GAK(ac)NLQ, which mimic the peptide segment containing K73 in the proposed HDAC10 substrate MutS homologue 2 (MSH2)[22]. Again, we observed no or very low catalytic activity (Fig. 2 and Supplementary Table 1). In comparison with its closest relative, the cytosolic isozyme HDAC6 (ref. [17]), HDAC10 was clearly not an efficient lysine deacetylase.

One may read the Km as the concentration of substrate that gives half-maximal velocity. For orientation: kcat means the maximal rate divided by the concentration of active sites. As usually defined, the kcat/Km is the second-order rate constant that governs catalysis at low substrate concentration.

B1: hHDAC6 CD12 (Homo sapiens) (protein)
chain: MTSTGQDSTTTRQRRSRQNPQSPPQDSSVTSKRNIKKGAVPRSIPNLAEVKKKGKMKKLGQAMEEDLIVGLQGMDLNLEAEALAGTGLVLDEQLNEFHCLWDDSFPEGPERLHAIKEQLIQEGLLDRCVSFQARFAEKEELMLVHSLEYIDLMETTQYMNEGELRVLADTYDSVYLHPNSYSCACLASGSVLRLVDAVLGAEIRNGMAIIRPPGHHAQHSLMDGYCMFNHVAVAARYAQQKHRIRRVLIVDWDVHHGQGTQFTFDQDPSVLYFSIHRYEQGRFWPHLKASNWSTTGFGQGQGYTINVPWNQVGMRDADYIAAFLHVLLPVALEFQPQLVLVAAGFDALQGDPKGEMAATPAGFAQLTHLLMGLAGGKLILSLEGGYNLRALAEGVSASLHTLLGDPCPMLESPGAPCRSAQASVSCALEALEPFWEVLVRSTETVERDNMEEDNVEESEEEGPWEPPVLPILTWPVLQSRTGLVYDQNMMNHCNLWDSHHPEVPQRILRIMCRLEELGLAGRCLTLTPRPATEAELLTCHSAEYVGHLRATEKMKTRELHRESSNFDSIYICPSTFACAQLATGAACRLVEAVLSGEVLNGAAVVRPPGHHAEQDAACGFCFFNSVAVAARHAQTISGHALRILIVDWDVHHGNGTQHMFEDDPSVLYVSLHRYDHGTFFPMGDEGASSQIGRAAGTGFTVNVAWNGPRMGDADYLAAWHRLVLPIAYEFNPELVLVSAGFDAARGDPLGGCQVSPEGYAHLTHLLMGLASGRIILILEGGYNLTSISESMAACTRSLLGDPPPLLTLPRPPLSGALASITETIQVHRRYWRSLRVMKVEDREGPSSSKLVTKKAPQPAKPRLAERMTTREKKVLEAGMGKVTSASFGEESTPGQTNSETAVVALTQDQPSEAATGGATLAQTISEAAIGGAMLGQTTSEEAVGGATPDQTTSEETVGGAILDQTTSEDAVGGATLGQTTSEEAVGGATLAQTTSEAAMEGATLDQTTSEEAPGGTELIQTPLASSTDHQTPPTSPVQGTTPQISPSTLIGSLRTLELGSESQGASESQAPGEENLLGEAAGGQDMADSMLMQGSRGLTDQAIFYAVTPLPWCPHLVAVCPIPAAGLDVTQPCGDCGTIQENWVCLSCYQVYCGRYINGHMLQHHGNSGHPLVLSYIDLSAWCYYCQAYVHHQALLDVKNIAHQNKFGEDMPHPH
notes: both catalytic domains CD1-CD2
On to B1, for which the Km was 14 ± 2 µM, the kcat was found to be 0.039 ± 0.007 s⁻¹ and the kcat/Km came to 2800 ± 400 M⁻¹ s⁻¹.
